US20150023959A1 (BIOVERATIV THERAPEUTICS, published 2015)

Biological target: T1, FVIII-155/VWF-031 heterodimer
T1 construct: The two chains are held together by disulfide bonds between the Fc regions; also called FVIII155/VWF31 heterodimer; FVIII155:VWF31
Assay: Octet BLI, heterodimer immobilized on protein G sensor, FVIII in solution
Description: For the assay, full length VWF was captured by using APS sensor. The binding of FVIIIFc and FVIII to the full-length VWF is shown at the lower left panel. The lack of binding of FVIIIY1680 (a mutant having no affinity for VWF) and FVIII:VWF heterodimer (FVIII155/VWF031) is shown at the lower right panel. […] The binding of the constructs to FVIII was measured.
The same experiment was performed in reverse orientation to determine if the D′D3 portion in the FVIII-VWF heterodimer can interact with other FVIII molecules not covalently attached to D′D3. […] Protein G alone with FVIII was used as control. These binding experiments confirmed that D′D3 in heterodimer can interact with only one FVIII molecule which is covalently attached to it and prevent FVIII from interacting with full length wild type VWF molecules.

T1 sequence (chain, as listed by the source): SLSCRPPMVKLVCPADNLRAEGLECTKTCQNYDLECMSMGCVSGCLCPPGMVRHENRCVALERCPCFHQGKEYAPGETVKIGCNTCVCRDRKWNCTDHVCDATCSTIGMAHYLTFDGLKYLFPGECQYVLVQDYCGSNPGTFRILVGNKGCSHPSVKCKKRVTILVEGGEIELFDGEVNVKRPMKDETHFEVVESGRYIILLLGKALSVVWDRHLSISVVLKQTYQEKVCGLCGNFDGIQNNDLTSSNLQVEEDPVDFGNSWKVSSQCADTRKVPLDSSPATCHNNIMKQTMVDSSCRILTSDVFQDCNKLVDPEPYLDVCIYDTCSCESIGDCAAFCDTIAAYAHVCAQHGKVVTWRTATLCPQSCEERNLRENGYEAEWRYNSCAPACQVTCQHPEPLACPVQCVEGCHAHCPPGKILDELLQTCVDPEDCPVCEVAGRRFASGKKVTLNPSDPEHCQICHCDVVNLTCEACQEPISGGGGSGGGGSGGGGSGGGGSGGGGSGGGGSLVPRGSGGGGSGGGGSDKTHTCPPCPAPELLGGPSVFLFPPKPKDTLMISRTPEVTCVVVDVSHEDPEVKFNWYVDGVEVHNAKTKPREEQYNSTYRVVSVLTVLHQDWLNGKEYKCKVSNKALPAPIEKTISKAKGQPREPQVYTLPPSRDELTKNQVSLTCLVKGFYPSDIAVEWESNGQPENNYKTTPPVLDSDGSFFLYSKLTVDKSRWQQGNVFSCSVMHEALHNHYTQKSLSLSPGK

binding result: no binding
B1: rFVIII (other)
chain: ATRRYYLGAVELSWDYMQSDLGELPVDARFPPRVPKSFPFNTSVVYKKTLFVEFTDHLFNIAKPRPPWMGLLGPTIQAEVYDTVVITLKNMASHPVSLHAVGVSYWKASEGAEYDDQTSQREKEDDKVFPGGSHTYVWQVLKENGPMASDPLCLTYSYLSHVDLVKDLNSGLIGALLVCREGSLAKEKTQTLHKFILLFAVFDEGKSWHSETKNSLMQDRDAASARAWPKMHTVNGYVNRSLPGLIGCHRKSVYWHVIGMGTTPEVHSIFLEGHTFLVRNHRQASLEISPITFLTAQTLLMDLGQFLLFCHISSHQHDGMEAYVKVDSCPEEPQLRMKNNEEAEDYDDDLTDSEMDVVRFDDDNSPSFIQIRSVAKKHPKTWVHYIAAEEEDWDYAPLVLAPDDRSYKSQYLNNGPQRIGRKYKKVRFMAYTDETFKTREAIQHESGILGPLLYGEVGDTLLIIFKNQASRPYNIYPHGITDVRPLYSRRLPKGVKHLKDFPILPGEIFKYKWTVTVEDGPTKSDPRCLTRYYSSFVNMERDLASGLIGPLLICYKESVDQRGNQIMSDKRNVILFSVFDENRSWYLTENIQRFLPNPAGVQLEDPEFQASNIMHSINGYVFDSLQLSVCLHEVAYWYILSIGAQTDFLSVFFSGYTFKHKMVYEDTLTLFPFSGETVFMSMENPGLWILGCHNSDFRNRGMTALLKVSSCDKNTGDYYEDSYEDISAYLLSKNNAIEPRSFSQNPPVLKRHQREITRTTLQSDQEEIDYDDTISVEMKKEDFDIYDEDENQSPRSFQKKTRHYFIAAVERLWDYGMSSSPHVLRNRAQSGSVPQFKKVVFQEFTDGSFTQPLYRGELNEHLGLLGPYIRAEVEDNIMVTFRNQASRPYSFYSSLISYEEDQRQGAEPRKNFVKPNETKTYFWKVQHHMAPTKDEFDCKAWAYFSDVDLEKDVHSGLIGPLLVCHTNTLNPAHGRQVTVQEFALFFTIFDETKSWYFTENMERNCRAPCNIQMEDPTFKENYRFHAINGYIMDTLPGLVMAQDQRIRWYLLSMGSNENIHSIHFSGHVFTVRKKEEYKMALYNLYPGVFETVEMLPSKAGIWRVECLIGEHLHAGMSTLFLVYSNKCQTPLGMASGHIRDFQITASGQYGQWAPKLARLHYSGSINAWSTKEPFSWIKVDLLAPMIIHGIKTQGARQKFSSLYISQFIIMYSLDGKKWQTYRGNSTGTLMVFFGNVDSSGIKHNIFNPPIIARYIRLHPTHYSIRSTLRMELMGCDLNSCSMPLGMESKAISDAQITASSYFTNMFATWSPSKARLHLQGRSNAWRPQVNNPKEWLQVDFQKTMKVTGVTTQGVKSLLTSMYVKEFLISSSQDGHQWTLFFQNGKVKVFQGNQDSFTPVVNSLDPPLLTRYLRIHPQSWVHQIALRMEVLGCEAQDLY
notes: also called wild type FVIII
